The conditions of this data set: Bacillus amyloliquefaciens; pH 6.3; 25 °C; Urea; Fluorescence; MES 50 mM; reversible: yes; whole UniProt chain shown.

1 protein from FireProtDB (doi:10.1006/jmbi.1993.1508) can be followed below.

B1: Ribonuclease wild type, P00648 (protein)
chain: MMKMEGIALKKRLSWISVCLLVLVSAAGMLFSTAAKTETSSHKAHTEAQVINTFDGVADYLQTYHKLPDNYITKSEAQALGWVASKGNLADVAPGKSIGGDIFSNREGKLPGKSGRTWREADINYTSGFRNSDRILYSSDWLIYKTTDHYQTFTKIR
Take B1: the denaturant m value came to 1.92 kcal/mol/M, the “denaturant midpoint (higher = more stable)” value was 4.58 M and the unfolding free energy was determined as 8.82 kcal/mol.
